From patent US20040185460

B1: inactivated MKK4 (protein)
chain: MAAPSPSGGGGSGGGSGSGTPGPVGSPAPGHPAVSSMQGKRKALKLNFANPPFKSTARFTLNPNPTGVQNPHIERLRTHSIESSGKLKISPEQHWDFTAEDLKDLGEIGRGAYGSVNKMVHKPSGQIMAVKRIRSTVDEKEQKQLLMDLDVVMRSSDCPYIVQFYGALFREGDCWICMELMSTSFDKFYKYVYSVLDDVIPEEILGKITLATVKALNHLKENLKIIHRDIKPSNILLDRSGNIKLCDFGISGQLVDSIAKTRDAGCRPYMAPERIDPSASRQGYDVRSDVWSLGITLYELATGRFPYPKWNSVFDQLTQVVKGDPPQLSNSEEREFSPSFINFVNLCLTKDESKRPKYKELLKHPFILMYEERAVEVACYVCKILDQMPATPSSPMYVD
B2: baculoviral GST-MLK3KD (protein)
chain: LRLEEVIGIGGFGKVYRGSWRGELVAVKAARQDPDEDISVTAESVRQEARLFAMLAHPNIIALKAVCLEEPNLCLVMEYAAGGPLSRALAGRRVPPHVLVNWAVQIARGMHYLHCEALVPVIHRDLKSNNILLLQPIESDDMEHKTLKITDFGLAREWHKTTQMSAAGTYAWMAPEVIKASTFSKGSDVWSFGVLLWELLTGEVPYRGIDCLAVAYGVAVNKLTLPIPSTCPEPFAQLMADCWAQDPHRRPDFASILQQLEAL
B3: baculoviral human GST-MLK7KD (protein)
chain: PANYVAPCRPAASPAPPPSRPSSPVHVAFERLELKELIGAGGFGQVYRATWQGQEVAVKAARQDPEQDAAAAAESVRREARLFAMLRHPNIIELRGVCLQQPHLCLVLEFARGGALNRALAAANAAPDPRAPGPRRARRIPPHVLVNWAVQIARGMLYLHEEAFVPILHRDLKSSNILLLEKIEHDDICNKTLKITDFGLAREWHRTTKMSTAGTYAWMAPEVIKSSLFSKGSDIWSYGVLLWELLTGEVPYRGIDGLAVAYGVAVNKLTLPIPSTCPEPFAKLMKECWQQDPHIRPSFALILEQLTAIEGAVMTEMPQESFHS

Experiments:
[1] = target: GST-MKK4(K113A) [GST: P08515]
[2] = target: GST-MKK7β1(K149A), O14733
[3] = target: myelin basic protein (UBI #13-104)
inactivated MKK4, P45985 = target: T1, inactivated MKK4, P45985
T1 chain: B1 chain

Protein | phosphorylation of GST-JNK1β1(K55A) by activated MKK4 (phospho-specific JNK antibody, fluorescence) (GST-JNK1β1(K55A), P45983) | phosphorylation of substrate coated on the plate (ELISA-based assay, time-resolved fluorescence) [1] | phosphorylation of substrate coated on the plate (ELISA-based assay, time-resolved fluorescence) [2] | phosphorylation of myelin basic protein (radioactive counts, Multiscreen TCA in-plate assay) [3] | phosphorylation of substrate coated on the plate (fluorescence units, ELISA-based assay with phospho-threonine antibody, time-resolved fluorescence) [1] | specific activity, ratio against GST-MLK7KD/LZ (ELISA-based phosphorylation assay) [1] | phosphorylation of substrate coated on the plate (fluorescence units, ELISA-based assay with phospho-threonine antibody, time-resolved fluorescence) [2] | specific activity, ratio against GST-MLK7KD/LZ (ELISA-based phosphorylation assay) [2] | in vitro kinase cascade: phosphorylation/activation of MKK4, read as phosphorylated GST-JNK1β1(K55A) (phospho-specific JNK antibody, fluorescence) (inactivated MKK4, P45985)
B1 | MKK4 was activated and was able to phosphorylate its protein substrate GST-JNK1β1(K55A) |  |  |  |  |  |  |  | 
B2 |  | both GST-MLK7 forms were less active than GST-MLK3KD (control enzyme) | both GST-MLK7 forms were less active than GST-MLK3KD (control enzyme) | Baculoviral GST-MLK3KD was used as the control enzyme in this analysis to show phosphorylation of myelin basic protein by a member of the mixed lineage kinase family |  |  |  |  | 
B3 |  |  |  | Both GST-MLK7KD and GST-MLK7KD/LZ were able to phosphorylate myelin basic protein | both forms of baculoviral GST-MLK7 catalyzed the phosphorylation of the two MKK protein substrates, GST-MKK4(K113A) and GST-MKK7(K149A) | GST-MLK7KD displaying about 2× higher activity than GST-MLK7KD/LZ | both forms of baculoviral GST-MLK7 catalyzed the phosphorylation of the two MKK protein substrates, GST-MKK4(K113A) and GST-MKK7(K149A) | GST-MLK7KD displaying about 2× higher activity than GST-MLK7KD/LZ | both GST-MLK7KD and GST-MLK7KD/LZ were able to phosphorylate MKK4 and as a consequence of this phosphorylation event, MKK4 was activated
